System: MS2 coat protein
Experiment: apparent KD of MS2 coat protein; designed switch direction (-1 OFF switch, 1 ON switch): 1; higher = weaker reporter binding
How it was run: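 For each design, the apparent KD is the median over clusters of curves fitted to normalised cluster fluorescence. Clusters held RNA switches with common flanks, transcribed on Illumina chips by stalled E. coli RNA polymerase. These were titrated with SNAP-549-labelled MS2 coat protein, doubling from 0.7 or 1.5 nM to 3 µM, without input, with 200 uM small-molecule ligand, or with an oligonucleotide input.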

[1] = Eterna round: R95, input ligand: microRNA oligo, concentration not stated
[2] = input ligand: microRNA oligo, concentration not stated
[3] = Eterna round: R95, input ligand: FMN 200 uM
[4] = Eterna round: R95, input ligand: none

Sequence | apparent KD of MS2 coat protein [1] | apparent KD of MS2 coat protein (input ligand: FMN 200 uM) | apparent KD of MS2 coat protein [2] | apparent KD of MS2 coat protein (input ligand: none) | apparent KD of MS2 coat protein [3] | apparent KD of MS2 coat protein [4]
GCAUCACAUGAGGAUCACCCAUGUCUUCGGAGUCGAGGAUAUGGUCACUGUAAACAGUGGCCAGAAGGCGAGAUGC [SS1 - Son of Teenbexe] (puzzle: Same State 1) | 0.0414 µM |  |  |  |  | 
GCGGACCUCACAUGAGGAUCACCCAUGUUGCGGAGACGCAAUGAGGAUAUCGAUGGGUUUCCCGUCGAGAAGGCAUAAAUCCGC [JL SSNG3 3.93 mod 4] (Eterna round: R96, puzzle: Same State NG 3) |  | 0.109 µM | 0.0445 µM | 0.0566 µM |  | 
UUAAAACAUGAGGAUCACCCAUGUCAACAAAGUCGAGGAUAUGGGCAAAUAAAAUAAGAACCAGAAGGCGAAUAAC [salish99_SS1_r3_007] (puzzle: Same State 1) | 0.422 µM |  |  |  | 0.0439 µM | 0.39 µM
GUGGAGGGUUGAGGAUAUUGGUUGCAUAUGUUUAACAUGAGGAUCACCCAUGUGGGUUGCGGUUUCGAGAAGGUAGGUUGCUGG [salish99_SSNG2_r04_043] (Eterna round: R96, puzzle: Same State NG 2) |  | 0.0908 µM | 0.0822 µM | 0.0752 µM |  | 
GUUACAUGAGGAUCACCCAUGUGUGUGUGGGAGUGAGUGGCUUAGGAUAUCUAUGAUUUUAGUUAAGAGAAGGAGGAUUGCUGU [SS-NG3-LRO07] (Eterna round: R96, puzzle: Same State NG 3) |  | 0.275 µM | 0.267 µM | 0.414 µM |  | 
UUGCUCGUGUGAGGAUAUGCAGCCGUUUCGGCUGCAGAAGGUACUAUAAUACAUGAGGAUCACCCAUGUCUCUAUUAUUUAGUG [salish99_SSNG1_r04_926] (Eterna round: R96, puzzle: Same State NG 1) |  | 0.0195 µM | 0.0192 µM | 0.0287 µM |  | 
AAAUAAAUGACUCAGGAUAUAUCAUAGAAUACAUGAGGAUCACCCAUGUUUUAAUAACAUGUUUGGUAGAAGGGAGUCAAUAAAU [LROPPY Same State 2 - v05_deltaG=1.86] (Eterna round: R96, puzzle: Same State 2) |  | 0.0252 µM | 0.0781 µM | 0.105 µM |  | 
GGAGCCGGCCUAGGAUAUUUCAUAAACAAACAUGAGGAUCACCCAUGUAGGCCAGAAGGCCUUGGGAAGAAGGAGGUCGGCUCC [Loop Effect - C27] (Eterna round: R96, puzzle: Same State NG 2) |  | 0.0221 µM | 0.0322 µM | 0.0452 µM |  | 
AACAAUCUAUCUGAGGAUAUCAUGUCAAAGACAUGAGGAUCACCCAUGUACCAGGAAACUGGUUAUGAGAAGGCAGAUAGAUUGA [SS2: 1115] (Eterna round: R96, puzzle: Same State 2) |  | 0.0482 µM | 0.596 µM | 0.932 µM |  | 
AACUAUCUAUCUCAGGAUAUCAUGUCAAAGACAUGAGGAUCACCCAUGUACCAGGAAACUGGUUAUGAGAAGGGAGAUAGAUAGG [Mat - Same State 2 - Mod - D42] (puzzle: Same State 2) | 0.0648 µM |  |  |  | 0.193 µM | 0.0683 µM
GGAGCCGGCCUAGGAUAUUUCAUUAAAUAACAUGAGGAUCACCCAUGUAGGCCAGAAGGCCUUGGGAAGAAGGAGGUCGGCUCC [Loop Effect - U24,U28] (Eterna round: R96, puzzle: Same State NG 2) |  | 0.0122 µM | 0.035 µM | 0.0463 µM |  | 
UCUUGGUUUUUGCUCGUUUUUUGUGUUGAACAUGAGGAUCACCCAUGUAUUGUACAAUCCGAUUUAAUAAUGGUCCG [JMF 50] (puzzle: Sensor for hsa-mir-208a) | 0.0484 µM |  |  |  | 0.0425 µM | 0.0464 µM
AGCUAUUACGAAGGAUAUAGGGACAUGAGGAUCACCCAUGUGUACAUGAGUAAAUGUGAUCACGUCUAGAAGGUUGUACUAACA [SameState NG2 #36] (Eterna round: R96, puzzle: Same State NG 2) |  | 0.474 µM | 0.383 µM | 0.43 µM |  | 
AGUCCAGCCUGAGCUGGACAAAAGCAUGUACAUGAGGAUCACCCAUGUUCAUGUACAAGCUUUUUGCUCGUCUUGCC [salish99_208a_r3_107x] (Eterna round: R96, puzzle: Sensor for hsa-mir-208a) |  | 0.774 µM | 0.0155 µM | 0.623 µM |  | 
UGACACACGGCAGGAUAUGCUUAGCAAAGCUAAGCAGAAGGGCCUCAUGUCGUGGAAAUGUGACAUGAGGAUCACCCAUGUCGC [Omei SS(NG)1 Cv5] (Eterna round: R96, puzzle: Same State NG 1) |  | 0.0273 µM | 0.0178 µM | 0.0299 µM |  | 
GCUCGGACGAUGACCCACAUGAGGAUCACCCAUGUGCGUGGGCAGGAUAUCUAGAUUAAGGAUGUAGAGAAGGGUCGACCGAGC [SameState NG3 #30] (Eterna round: R96, puzzle: Same State NG 3) |  | 0.415 µM | 0.0584 µM | 0.386 µM |  | 

Sequence | apparent KD of MS2 coat protein [1] | apparent KD of MS2 coat protein (input ligand: FMN 200 uM) | apparent KD of MS2 coat protein [2] | apparent KD of MS2 coat protein (input ligand: none) | apparent KD of MS2 coat protein [3] | apparent KD of MS2 coat protein [4]
GAGGGACAGACCAACAUGAGGAUCACCCAUGUCCUCGCAGGUCAGGAUAUCCGGCCAACAGGCAAGGAGAAGGGACGGUGAACC (Eterna round: R96, puzzle: Same State NG 3) |  | 0.417 µM | 0.344 µM | 0.479 µM |  | 
CCGGUUUAUGGAGGAUAUGGAGCCUUAUUGGCUCCAGAAGGCUAAUACAUGAGGAUCACCCAUGUUCCGGCGGUCAAUAGACCG [Eli NG1ss - 58] (Eterna round: R96, puzzle: Same State NG 1) |  | 0.0239 µM | 0.0778 µM | 0.126 µM |  | 
GACAAUCUAUCUCAGGAUAUCAUGUCAAAGACAUGAGGAUCACCCAUGUACCAGGAAACUGGUUAUGAGAAGGGAGAUAGAUUGA [Mat - Same State 2 - Mod - D26] (puzzle: Same State 2) | 0.142 µM |  |  |  | 0.264 µM | 0.427 µM
CUGAGCAGUCAAGGAUAUCACGUCGAAUAGACGUGAGAAGGUGACCAAUACAUGAGGAUCACCCAUGUAAUACAUGAAGCUCAG [SSNG1/12-A1] (Eterna round: R96, puzzle: Same State NG 1) |  |  | 0.026 µM |  |  | 
ACAUGAGACCAAGGAUAUUUUGUACCUACAUGUGACAUGAGGAUCACCCAUGUGGUAAGUAUGAGAAAGAAGGUGGAGAUAUGU [Equivalence 22 - Jieux - Same State NG 2] (Eterna round: R96, puzzle: Same State NG 2) |  | 0.0228 µM | 0.0225 µM | 0.037 µM |  | 
GGAGCCGGCCUAGGAUAUUUCAUAAAUAAACAUGAGGAUCACCCAUGUAGGCCAGAAGGCCUUGGGAAGAAGGAGGUCGGCUCC [Loop Effect - U27] (Eterna round: R96, puzzle: Same State NG 2) |  | 0.00958 µM | 0.0302 µM | 0.0339 µM |  | 
GUGGUCAGACAUGAGGAUCACCCAUGUGGAAUAAAUAAGGACUAGGAUAUGGAAUAUAGGAUAUACCAGAAGGAGUGGUUGGUG (Eterna round: R96, puzzle: Same State NG 3) |  |  | 0.0365 µM |  |  | 
AGCGUCCACACAGGAUAUCACCUGCACUGCAGGUGAGAAGGGUGACCGGUGCGCAAUAACGACAUGAGGAUCACCCAUGUAAAA [Vegea] (Eterna round: R96, puzzle: Same State NG 1) |  | 0.775 µM | 0.0383 µM | 0.143 µM |  | 
GGAGGACAUGAGGAUCACCCAUGUGGAUGGGCGCUAGGAUAUGCGAGAGGGAAGAGUGGAGCAGAAGGAGUGGGUU [JR_SS1_Sub044] (puzzle: Same State 1) | 0.04 µM |  |  |  |  | 
AACAAUCUAUCUGAGGAUAUCAUGAAAUAAACAUGAGGAUCACCCAUGUGUAGGAAAACUGCAUAUGAGAAGGCAGAUAGAUUGA [salish99_ss2_r3_036] (Eterna round: R96, puzzle: Same State 2) |  |  | 0.465 µM |  |  | 
GGUGCCAAUAAAGCCUACAUGAGGAUCACCCAUGUAUGUAGGCAGGAUAUCGUAUGCAAAGCAUACGAGAAGGGCCGAGGCACC [Mat - Same State NG 3 - JL Mod - D56] (Eterna round: R96, puzzle: Same State NG 3) |  | 0.0187 µM | 0.0291 µM | 0.037 µM |  | 
UUUAGUUGCGGGCAGGAUAUGUAUUAAUAUACAUGAGGAUCACCCAUGUGAGAUCGAAUAGAUCUACAGAAGGGCCAAUCGCGAC [Laonerce - 25] (puzzle: Same State 2) | 0.133 µM |  |  |  | 0.0198 µM | 0.188 µM
GAGGGACAUGAGGAUCACCCAUGUGGAGGGAGUAAAGGAUAUUAGUGUGGGAAAGUAGGGUAAGAAGGUUGAUUGG [JR_SS1_Sub084] (puzzle: Same State 1) | 0.0749 µM |  |  |  | 0.103 µM | 0.209 µM
CUUUAUCACUAUACAUGAGGAUCACCCAUGUUAUCAUCAUGAGAGGAUAUCGUAUUUGGAUUUUUCGAGAAGGCUCUAUUGUAU [JR_SSNG3_Sub077] (Eterna round: R96, puzzle: Same State NG 3) |  |  | 0.158 µM |  |  | 
UAGGGACAUGAGGAUCACCCAUGUGCCUCAUAUGGAGAAACACAGGAUAUGCUGAGGGAAACAUGGCAGAAGGGUGAAGAGAGG [Default title] (Eterna round: R96, puzzle: Same State NG 3) |  | 0.0319 µM | 0.0273 µM | 0.0509 µM |  | 

— the supplement of paper PMC9170038
